# Test results taken from paper doi:10.1101/2021.04.21.440798 (bioRxiv, 2021).
# B1: Calnexin (CANX), endogenous (natural protein)
# chain: HDGHDDDVIDIEDDLDDVIEEVEDSKPDTTAPPSSPKVTYKAPVPTGEVYFADSFDRGTLSGWILSKAKKDDTDDEIAKYDGKWEVEEMKESKLPGDKGLVLMSRAKHHAISAKLNKPFLFDTKPLIVQYEVNFQNGIECGGAYVKLLSKTPELNLDQFHDKTPYTIMFGPDKCGEDYKLHFIFRHKNPKTGIYEEKHAKRPDADLKTYFTDKKTHLYTLILNPDNSFEILVDQSVVNSGNLLNDMTPPVNPSREIEDPEDRKPEDWDERPKIPDPEAVKPDDWDEDAPAKIPDEEATKPEGWLDDEPEYVPDPDAEKPEDWDEDMDGEWEAPQIANPRCESAPGCGVWQRPVIDNPNYKGKWKPPMIDNPSYQGIWKPRKIPNPDFFEDLEPFRMTPFSAIGLELWSMTSDIFFDNFIICADRRIVDDWANDGWGLKKAADGAAEPGVVGQMIEAAEERPWLWVVYILTVALPVFLVILFCCSGKKQTSGMEYKKTDAPQPDVKEEEEEKEEEKDKGDEEEEGEEKLEEKQKSDAEEDGGTVSQEEEDRKPKAEEDEILNRSPRNRKPRRE
# Target: GFP-T6BP (TAX1BP1 / TRAF6-Binding Protein fused to GFP) (UniProt Q86VP1 1-789)
# Assay: co-IP
# Chain of GFP-T6BP (TAX1BP1 / TRAF6-Binding Protein fused to GFP) (Q86VP1 whole entry, the tested form may be a part): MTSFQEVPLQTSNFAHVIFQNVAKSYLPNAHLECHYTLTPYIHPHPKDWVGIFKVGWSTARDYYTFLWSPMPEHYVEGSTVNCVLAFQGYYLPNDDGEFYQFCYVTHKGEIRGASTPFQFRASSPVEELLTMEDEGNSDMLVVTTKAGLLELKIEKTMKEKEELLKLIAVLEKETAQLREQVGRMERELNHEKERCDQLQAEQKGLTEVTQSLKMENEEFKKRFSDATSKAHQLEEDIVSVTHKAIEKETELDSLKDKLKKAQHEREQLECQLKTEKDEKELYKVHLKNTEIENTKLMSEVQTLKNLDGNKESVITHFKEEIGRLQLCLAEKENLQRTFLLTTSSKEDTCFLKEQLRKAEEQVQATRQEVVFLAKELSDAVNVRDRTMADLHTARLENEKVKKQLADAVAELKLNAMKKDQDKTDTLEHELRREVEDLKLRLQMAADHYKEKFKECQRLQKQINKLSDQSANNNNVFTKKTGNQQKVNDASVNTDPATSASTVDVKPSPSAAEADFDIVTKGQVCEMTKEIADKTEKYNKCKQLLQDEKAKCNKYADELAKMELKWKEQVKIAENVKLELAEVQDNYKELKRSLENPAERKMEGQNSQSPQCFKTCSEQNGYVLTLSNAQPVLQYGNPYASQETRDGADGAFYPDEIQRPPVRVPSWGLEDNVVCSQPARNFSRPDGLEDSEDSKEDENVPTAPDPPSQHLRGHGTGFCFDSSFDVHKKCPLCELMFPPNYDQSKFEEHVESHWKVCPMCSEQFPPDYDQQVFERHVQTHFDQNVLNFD
binder,measurement,value
B1,fold enrichment over the GFP control,3 fold
